Results taken from publication PMC7319049 (Nature, 2020).

B2: Swi3 (natural protein)
chain: MENTLGEGSTVNASVDVDQHGNDNNSDSNANAAVAGVANTDTAGEESQQQDESLKDEATVPNTRDAESEAITVTAKQQPTMQANKLDSQETPSTEESRAQNVFGQDNEDSDNLFGETESSVSNNEANTPSIPTNPVDNENNKPAIKEDSTIQDSNGDVKNMEDVKIQKEEEPENNTVIEGVKEESQPDENTKEMDEVEEDDEDDDQPMISPDNSIFGDTKSESKQLGNTSSVANTPSEIPDAHKAEQEDIIEKTESVDKKVDSGEERNEQEREIMNDHSKSANPKKTTITRVEPETFEIPQAHEIVIPSYSKWFNLEKIHSIEVQSLPEFFTNRIPSKTPEVYMRYRNFMVNSYRLNPNEYFSVTTARRNVSGDAAALFRLHKFLTKWGLINYQVDSKLLPKNIEPPLTSQYSTRHDAPRGLFPFESYKPSVQLPDMAKLKKMMNTSDSESTLYKYLKESKRKYDEITHPPSTTDDENGDKNDNGGKMNNEVSTSTSMTGDANLLEEGETSRPLKKVKILEQIDENWSKEDLQKLLKGIQEFGADWYKVAKNVGNKSPEQCILRFLQLPIEDKFLYGDGNGKGDNDNGLGPLKYAPHLPFSKSENPVLSTIAFLVGLVNPKTVQSMTQRAIQSAESIKSQKEEISDQKPIEHIKEGSEIAISSLGYRSHIFATNEERQMNFLTNELIRLQMEKLDAKLNHLKKLEKFMELERKTLERQQENLLIQRLNFNQNSSKIVNVLSKCLNLISDSNINNSSVAEKEEIRSQIDHFKSMLSKPETLSIGKNPFNKPNIETGENHNGQSISNENDVKPISIEAPQFYRYWSA

Key:
Experiment in all cases: cryo-EM structure
Swi1 = target: T1, Swi1 (S. cerevisiae, UniProt P09547 1-1314)
T1 sequence: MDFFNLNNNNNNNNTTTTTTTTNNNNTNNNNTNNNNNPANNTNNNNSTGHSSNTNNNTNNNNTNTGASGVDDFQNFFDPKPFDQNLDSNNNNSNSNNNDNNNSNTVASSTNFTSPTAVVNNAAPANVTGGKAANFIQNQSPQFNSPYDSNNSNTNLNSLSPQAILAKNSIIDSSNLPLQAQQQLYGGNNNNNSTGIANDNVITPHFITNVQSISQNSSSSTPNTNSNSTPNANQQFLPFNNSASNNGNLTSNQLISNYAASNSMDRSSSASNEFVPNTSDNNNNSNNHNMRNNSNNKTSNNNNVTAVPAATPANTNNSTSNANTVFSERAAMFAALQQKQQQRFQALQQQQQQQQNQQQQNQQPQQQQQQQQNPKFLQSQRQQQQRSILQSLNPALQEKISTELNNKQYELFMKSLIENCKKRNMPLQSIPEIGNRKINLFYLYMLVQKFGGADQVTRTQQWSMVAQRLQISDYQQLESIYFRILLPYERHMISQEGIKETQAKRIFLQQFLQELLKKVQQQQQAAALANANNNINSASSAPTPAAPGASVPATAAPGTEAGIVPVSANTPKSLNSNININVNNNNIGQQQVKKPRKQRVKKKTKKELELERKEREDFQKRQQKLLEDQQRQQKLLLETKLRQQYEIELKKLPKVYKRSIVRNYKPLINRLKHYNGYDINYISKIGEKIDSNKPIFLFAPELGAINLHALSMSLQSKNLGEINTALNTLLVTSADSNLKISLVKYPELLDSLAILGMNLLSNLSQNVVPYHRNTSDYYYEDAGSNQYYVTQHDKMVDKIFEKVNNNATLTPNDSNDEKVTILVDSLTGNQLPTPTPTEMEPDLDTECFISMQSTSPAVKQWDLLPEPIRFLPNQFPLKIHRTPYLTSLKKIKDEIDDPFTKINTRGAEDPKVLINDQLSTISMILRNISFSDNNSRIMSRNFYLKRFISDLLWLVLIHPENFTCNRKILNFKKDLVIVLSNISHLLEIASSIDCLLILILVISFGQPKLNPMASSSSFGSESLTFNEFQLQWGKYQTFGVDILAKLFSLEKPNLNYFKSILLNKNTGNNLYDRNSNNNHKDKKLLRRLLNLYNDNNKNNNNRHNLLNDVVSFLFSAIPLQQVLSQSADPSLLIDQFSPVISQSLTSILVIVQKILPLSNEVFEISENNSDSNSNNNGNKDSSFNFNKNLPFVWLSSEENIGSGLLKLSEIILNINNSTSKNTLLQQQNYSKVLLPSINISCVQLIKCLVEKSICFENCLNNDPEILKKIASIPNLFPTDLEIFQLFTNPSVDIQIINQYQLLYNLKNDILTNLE

Swi3 = target: B2
Snf5 = Snf5 (S. cerevisiae, UniProt P18480 1-905)
Sequence of Snf5 (P18480 whole entry): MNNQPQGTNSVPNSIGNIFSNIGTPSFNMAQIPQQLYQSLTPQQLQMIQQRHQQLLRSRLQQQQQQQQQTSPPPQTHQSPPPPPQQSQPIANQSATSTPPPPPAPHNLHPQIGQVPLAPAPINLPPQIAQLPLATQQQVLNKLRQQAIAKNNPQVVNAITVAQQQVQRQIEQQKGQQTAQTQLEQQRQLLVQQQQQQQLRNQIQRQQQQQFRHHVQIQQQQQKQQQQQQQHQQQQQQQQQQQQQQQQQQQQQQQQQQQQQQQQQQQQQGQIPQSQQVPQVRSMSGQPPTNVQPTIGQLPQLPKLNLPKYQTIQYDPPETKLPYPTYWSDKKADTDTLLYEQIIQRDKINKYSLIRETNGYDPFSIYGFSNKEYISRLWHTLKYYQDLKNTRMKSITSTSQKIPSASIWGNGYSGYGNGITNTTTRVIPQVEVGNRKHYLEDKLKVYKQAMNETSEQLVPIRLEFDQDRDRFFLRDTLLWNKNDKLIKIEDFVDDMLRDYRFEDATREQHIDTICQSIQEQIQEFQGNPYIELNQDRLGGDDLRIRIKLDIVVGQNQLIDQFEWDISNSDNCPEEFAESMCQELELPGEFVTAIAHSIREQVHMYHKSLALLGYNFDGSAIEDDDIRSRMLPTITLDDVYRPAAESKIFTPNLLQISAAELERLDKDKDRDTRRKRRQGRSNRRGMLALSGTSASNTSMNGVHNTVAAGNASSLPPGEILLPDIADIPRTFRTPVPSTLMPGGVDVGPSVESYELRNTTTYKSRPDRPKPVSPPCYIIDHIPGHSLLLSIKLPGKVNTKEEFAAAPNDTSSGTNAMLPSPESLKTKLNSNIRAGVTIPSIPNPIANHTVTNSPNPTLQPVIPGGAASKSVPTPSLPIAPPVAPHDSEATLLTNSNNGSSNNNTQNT

cryo-EM structure = target: the molecule itself
Snf2 = Snf2 (S. cerevisiae, UniProt P22082 1-1703)
Sequence of Snf2 (P22082 whole entry): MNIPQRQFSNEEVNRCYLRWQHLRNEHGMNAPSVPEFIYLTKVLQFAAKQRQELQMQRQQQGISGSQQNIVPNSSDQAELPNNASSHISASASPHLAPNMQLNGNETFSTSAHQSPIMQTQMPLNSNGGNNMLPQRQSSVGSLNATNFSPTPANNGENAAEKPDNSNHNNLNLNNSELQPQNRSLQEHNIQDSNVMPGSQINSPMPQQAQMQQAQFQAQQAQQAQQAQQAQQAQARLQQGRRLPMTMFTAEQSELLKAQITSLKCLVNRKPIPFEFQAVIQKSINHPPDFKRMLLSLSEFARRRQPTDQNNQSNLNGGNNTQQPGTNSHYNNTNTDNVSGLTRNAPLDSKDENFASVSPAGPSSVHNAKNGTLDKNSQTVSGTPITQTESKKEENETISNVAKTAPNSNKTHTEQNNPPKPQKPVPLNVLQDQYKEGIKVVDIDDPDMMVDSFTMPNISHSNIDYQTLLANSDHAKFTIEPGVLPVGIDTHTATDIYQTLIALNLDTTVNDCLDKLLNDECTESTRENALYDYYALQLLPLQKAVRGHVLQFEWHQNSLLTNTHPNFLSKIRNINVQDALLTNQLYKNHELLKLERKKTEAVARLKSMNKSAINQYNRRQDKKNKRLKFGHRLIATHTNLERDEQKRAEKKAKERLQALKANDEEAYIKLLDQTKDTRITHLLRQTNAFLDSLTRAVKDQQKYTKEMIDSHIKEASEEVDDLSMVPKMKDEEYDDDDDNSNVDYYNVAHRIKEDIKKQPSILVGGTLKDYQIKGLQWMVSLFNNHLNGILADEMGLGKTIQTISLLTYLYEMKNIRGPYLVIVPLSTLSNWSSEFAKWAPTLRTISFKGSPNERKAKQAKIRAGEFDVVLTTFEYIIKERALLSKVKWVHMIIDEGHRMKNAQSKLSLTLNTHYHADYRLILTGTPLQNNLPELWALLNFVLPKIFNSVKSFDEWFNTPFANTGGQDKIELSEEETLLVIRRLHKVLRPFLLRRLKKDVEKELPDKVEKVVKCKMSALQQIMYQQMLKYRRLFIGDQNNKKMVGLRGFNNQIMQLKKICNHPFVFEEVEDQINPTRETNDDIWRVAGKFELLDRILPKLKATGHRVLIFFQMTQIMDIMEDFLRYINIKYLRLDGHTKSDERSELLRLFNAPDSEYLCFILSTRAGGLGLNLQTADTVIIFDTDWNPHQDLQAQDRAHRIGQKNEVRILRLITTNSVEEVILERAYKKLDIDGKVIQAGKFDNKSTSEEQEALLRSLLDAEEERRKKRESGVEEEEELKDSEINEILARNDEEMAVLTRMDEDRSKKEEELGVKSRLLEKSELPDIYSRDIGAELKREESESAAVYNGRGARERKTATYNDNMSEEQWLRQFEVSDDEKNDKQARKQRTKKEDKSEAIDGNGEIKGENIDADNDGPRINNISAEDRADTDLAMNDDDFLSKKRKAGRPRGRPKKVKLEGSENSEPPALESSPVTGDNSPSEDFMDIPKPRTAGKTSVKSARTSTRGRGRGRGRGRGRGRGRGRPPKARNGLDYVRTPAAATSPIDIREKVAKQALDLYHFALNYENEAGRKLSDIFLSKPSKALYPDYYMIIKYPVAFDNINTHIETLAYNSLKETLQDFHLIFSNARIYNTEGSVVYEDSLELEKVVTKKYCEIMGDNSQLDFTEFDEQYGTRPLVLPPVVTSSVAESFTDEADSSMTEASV

B1: Snf12 (natural protein)
chain: MSKVMKPSNGKGSRKSSKAATPDTKNFFHAKKKDPVNQDKANNASQITPTVPHSHPSDMVIPDHLAELIPELYSFQQLVDSEKRLDHFIHLRNLHMKRMVAQWERSKLSQEFLYPHLNFPNVKFLRIFISNVSENQPWQMDTNNEADLMALENATWTMRIEGRLLDNVQANDPAREKFSSFIESIVVDFKNKENDNVPSTKFNAAPEENATEGPSDKKLNLNLPLQFSLPNGDNSTTTNTDQNNATMGEETAKKDMSSTTPKLESVKWQYDPNNPVDFDGLDIKRVGSENVECTISILRKSSPEEPFMSYSPQLTAIIGLKSGTSHDAIFSIYKYIHLNELLTNDESAFENLMGNRNNHNSNTSTSKMLDAASSQVSIVKLDTQLITLLPSSLKESSPDTMKLTDLLSLINSTHLLPLQPIEIDYTVRVDKASTYGELVLDIEVPDVNALKFNNTQRESQIGAAELNENARELEQIKPKIALQDKEITSVLSNLHESNKRYRFFKKISEDPVKALNECIASTSNALKVLSGDEGYNEDMVRRANFYKENEAMLRENIEVILSNGRM
binding result (Swi1): binds | binding result (Swi3): binds

B2
binding result (Snf5): binds | binding result (Swi1): binds | stoichiometry N (cryo-EM structure): 2 | binding result (Snf2): binds

B3: Swp82 (natural protein)
chain: MLGEDEGNTVLEKGNNPSVKQGEVGAVFIVPKILIREHERVILKQILQILDQDELVQPPLDKFPYKKLELPKYIDELKTRDATNTSYKMIQLDAYGEKKVGSNGELFGGRHYLFNTFTFTAHMGVLLVLLQDVIKVLYQSNATHDEDEFIVQHDQILVMETSEEQTKFLAKNGVIPEESKGSFKYITARSAFVEFGASVIAGGQRIVDDYWESLAKKQNLSSHQRVFKLSTNLISKISLLRPSFQNNRISNANEISANTNNTCTISTSKFESQYPIVTEQPSAEIREAYIENFAKGEHISAIVPGQSISGTLELSAQFRVPRYHSKNSFQQALQMKAMDIPIGRHEELLAQYESQAPDGSASISLPNHIPSVNPSNKPIKRMLSSILDINVSSSKNKKSEENEMIKPMNKGQHKNNTSLNINGWKFESLPLKSAENSGKQQYYRGLPLYEKNTLLERLKQLTPNEIKELEHLHDAVFVNTGLQNVRKVRTKKWKKYWQYKAGIPIGLKRSQLDEFKNKYLKDVLAQTSVTTNFNEITNTDETITTKRVPNPNFLGNCNIKDFKPPYIYSHVNKVPQNVAGDKTAVKLDTEVKNTNANPVVATDPVAAKPDNLANFSNEVAMNN
binding result (Snf5): binds | binding result (Swi3): binds
